Columns and labels:
Experiment in all cases: holdup assay
Design in all cases: key: below the threshold = too weak to quantify, mostly under pKd 3.1 to 4
Conditions in all cases: plain residues with an end cap or a label only (N-terminal biotin on a linker: ado-ado)
LIMK2, P53671 = molecular target: LIMK2, P53671
DLG5_1, Q8TDM6 = molecular target: DLG5_1, Q8TDM6
NHERF4_1, Q86UT5-2 = molecular target: NHERF4_1, Q86UT5-2
SHANK1, Q9Y566 = molecular target: T1, SHANK1, Q9Y566
T1 sequence (Q9Y566 658-767, limits assumed, looked up): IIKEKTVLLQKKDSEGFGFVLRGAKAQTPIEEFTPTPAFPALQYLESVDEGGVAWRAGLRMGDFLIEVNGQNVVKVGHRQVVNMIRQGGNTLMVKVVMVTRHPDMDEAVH

SNTG1, Q9NSN8 = molecular target: T2, SNTG1, Q9NSN8
T2 sequence (Q9NSN8 52-150, limits assumed, looked up): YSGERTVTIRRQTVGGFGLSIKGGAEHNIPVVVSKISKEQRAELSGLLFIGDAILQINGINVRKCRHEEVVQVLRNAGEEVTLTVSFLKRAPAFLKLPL

MAST2, Q6P0Q8 = molecular target: MAST2, Q6P0Q8
PDZRN4_1, Q6ZMN7 = molecular target: PDZRN4_1, Q6ZMN7
RHPN1, Q8TCX5 = molecular target: T3, RHPN1, Q8TCX5
T3 sequence (Q8TCX5 508-602, limits assumed, looked up): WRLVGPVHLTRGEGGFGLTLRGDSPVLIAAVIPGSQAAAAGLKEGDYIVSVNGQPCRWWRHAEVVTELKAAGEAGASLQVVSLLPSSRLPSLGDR

CASK, O14936 = molecular target: CASK, O14936
MPDZ_10, O75970 = molecular target: T4, MPDZ_10, O75970
T4 sequence (O75970 1624-1722, limits assumed, looked up): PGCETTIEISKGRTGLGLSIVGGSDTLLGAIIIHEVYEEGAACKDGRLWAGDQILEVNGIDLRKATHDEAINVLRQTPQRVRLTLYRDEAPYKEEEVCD

SYNJ2BP, P57105 = molecular target: T5, SYNJ2BP, P57105
T5 sequence (P57105 8-110, limits assumed, looked up): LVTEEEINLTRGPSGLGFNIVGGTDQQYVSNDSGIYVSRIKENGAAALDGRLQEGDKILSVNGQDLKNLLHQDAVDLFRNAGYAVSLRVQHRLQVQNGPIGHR

NHERF3_1, Q5T2W1 = molecular target: T6, NHERF3_1, Q5T2W1
T6 sequence (Q5T2W1 4-100, limits assumed, looked up): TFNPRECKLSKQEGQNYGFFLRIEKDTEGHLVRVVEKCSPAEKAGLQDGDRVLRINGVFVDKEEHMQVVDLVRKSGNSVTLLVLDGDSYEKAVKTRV

TX1BP3, O14907 = molecular target: T7, TX1BP3, O14907
T7 sequence (O14907 10-122, limits assumed, looked up): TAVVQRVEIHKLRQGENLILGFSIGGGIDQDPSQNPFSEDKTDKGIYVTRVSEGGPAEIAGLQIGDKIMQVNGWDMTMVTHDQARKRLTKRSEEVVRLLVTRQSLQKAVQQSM

DLG3_1, Q92796 = molecular target: T8, DLG3_1, Q92796
T8 sequence (Q92796 125-227, limits assumed, looked up): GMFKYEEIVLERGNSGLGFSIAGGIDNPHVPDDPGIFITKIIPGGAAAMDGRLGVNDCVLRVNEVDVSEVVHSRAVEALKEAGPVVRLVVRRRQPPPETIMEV

ARHGEF12, Q9NZN5-2 = molecular target: ARHGEF12, Q9NZN5-2
GOPC, Q9HD26 = molecular target: GOPC, Q9HD26
APBA2_1, Q99767 = molecular target: T9, APBA2_1, Q99767
T9 sequence (Q99767 563-664, limits assumed, looked up): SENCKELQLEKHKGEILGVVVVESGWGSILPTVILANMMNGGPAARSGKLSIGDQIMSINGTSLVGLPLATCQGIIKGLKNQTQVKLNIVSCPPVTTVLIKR

MAGI1_2, Q96QZ7 = molecular target: MAGI1_2, Q96QZ7
SCRIB_1, Q14160 = molecular target: SCRIB_1, Q14160
GRASP, Q7Z6J2 = molecular target: GRASP, Q7Z6J2
DLG3_2, Q92796 = molecular target: T10, DLG3_2, Q92796
T10 sequence (Q92796 221-321, limits assumed, looked up): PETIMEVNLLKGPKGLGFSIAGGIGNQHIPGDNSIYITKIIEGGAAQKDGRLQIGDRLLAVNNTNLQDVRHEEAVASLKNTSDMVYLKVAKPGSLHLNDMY

SNTA1, Q13424 = molecular target: T11, SNTA1, Q13424
T11 sequence (Q13424 82-180, limits assumed, looked up): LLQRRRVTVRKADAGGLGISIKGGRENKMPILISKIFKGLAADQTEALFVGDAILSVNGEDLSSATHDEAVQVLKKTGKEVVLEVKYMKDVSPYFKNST

IL16_4, Q14005 = molecular target: IL16_4, Q14005
GRID2IP_1, A4D2P6 = molecular target: GRID2IP_1, A4D2P6
TJP3_3, O95049 = molecular target: T12, TJP3_3, O95049
T12 sequence (O95049 375-456, limits assumed, looked up): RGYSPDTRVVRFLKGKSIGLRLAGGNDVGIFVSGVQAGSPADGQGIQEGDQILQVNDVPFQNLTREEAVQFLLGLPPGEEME

FRMPD3, Q5JV73 = molecular target: FRMPD3, Q5JV73
FRMPD3, Q5JV73, sequence (Q5JV73 12-100): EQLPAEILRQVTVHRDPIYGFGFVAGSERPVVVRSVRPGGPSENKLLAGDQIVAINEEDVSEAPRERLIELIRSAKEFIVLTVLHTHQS

SCRIB_1, Q14160, sequence (Q14160 718-814): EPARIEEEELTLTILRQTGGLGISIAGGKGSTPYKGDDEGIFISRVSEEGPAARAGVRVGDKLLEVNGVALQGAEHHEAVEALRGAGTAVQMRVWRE
GRASP, Q7Z6J2, sequence (Q7Z6J2 96-193): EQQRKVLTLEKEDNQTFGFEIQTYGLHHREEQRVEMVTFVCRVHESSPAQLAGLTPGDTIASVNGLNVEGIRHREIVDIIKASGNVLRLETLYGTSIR
ARHGEF12, Q9NZN5-2, sequence (Q9NZN5 other isoform, or with tags, fused parts or gaps): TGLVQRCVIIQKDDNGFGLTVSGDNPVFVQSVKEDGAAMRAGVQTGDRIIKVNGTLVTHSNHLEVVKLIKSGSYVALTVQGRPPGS
MAGI1_2, Q96QZ7, sequence (Q96QZ7 456-580): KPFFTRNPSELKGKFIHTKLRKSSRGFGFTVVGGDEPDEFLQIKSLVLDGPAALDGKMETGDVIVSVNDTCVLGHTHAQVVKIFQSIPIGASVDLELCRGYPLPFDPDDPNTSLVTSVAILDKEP
MAST2, Q6P0Q8, sequence (Q6P0Q8 1099-1202): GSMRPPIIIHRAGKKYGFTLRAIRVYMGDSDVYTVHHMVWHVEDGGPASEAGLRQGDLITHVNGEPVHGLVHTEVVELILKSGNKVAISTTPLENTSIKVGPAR
NHERF4_1, Q86UT5-2, sequence (Q86UT5 other isoform, or with tags, fused parts or gaps): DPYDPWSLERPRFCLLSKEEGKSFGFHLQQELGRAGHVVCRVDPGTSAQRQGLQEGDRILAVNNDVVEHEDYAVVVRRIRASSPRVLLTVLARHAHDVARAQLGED
IL16_4, Q14005, sequence (Q14005 1229-1329): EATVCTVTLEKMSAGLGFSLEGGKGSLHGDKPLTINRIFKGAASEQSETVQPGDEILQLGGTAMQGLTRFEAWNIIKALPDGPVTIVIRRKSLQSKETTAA
LIMK2, P53671, sequence (P53671 143-248): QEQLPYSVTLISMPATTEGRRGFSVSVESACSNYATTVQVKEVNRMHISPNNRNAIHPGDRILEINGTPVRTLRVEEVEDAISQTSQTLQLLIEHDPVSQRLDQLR
CASK, O14936, sequence (O14936 487-570): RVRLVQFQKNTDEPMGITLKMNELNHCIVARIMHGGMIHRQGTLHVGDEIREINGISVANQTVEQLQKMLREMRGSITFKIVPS
GRID2IP_1, A4D2P6, sequence (A4D2P6 1-87): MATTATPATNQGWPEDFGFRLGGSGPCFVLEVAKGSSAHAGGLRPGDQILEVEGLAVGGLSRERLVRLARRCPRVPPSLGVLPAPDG
PDZRN4_1, Q6ZMN7, sequence (Q6ZMN7 213-318): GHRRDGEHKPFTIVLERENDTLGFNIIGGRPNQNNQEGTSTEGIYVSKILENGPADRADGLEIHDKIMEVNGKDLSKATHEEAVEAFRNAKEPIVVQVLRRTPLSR
DLG5_1, Q8TDM6, sequence (Q8TDM6 617-713): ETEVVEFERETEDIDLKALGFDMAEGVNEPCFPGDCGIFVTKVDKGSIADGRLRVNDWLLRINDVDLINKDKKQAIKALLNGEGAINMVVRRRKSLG

Binder	pKd (LIMK2, P53671)	pKd (DLG5_1, Q8TDM6)	pKd (NHERF4_1, Q86UT5-2)	pKd (SHANK1, Q9Y566)	pKd (SNTG1, Q9NSN8)	pKd (MAST2, Q6P0Q8)	pKd (PDZRN4_1, Q6ZMN7)	pKd (RHPN1, Q8TCX5)	pKd (CASK, O14936)	pKd (MPDZ_10, O75970)	pKd (SYNJ2BP, P57105)	pKd (NHERF3_1, Q5T2W1)	pKd (TX1BP3, O14907)	pKd (DLG3_1, Q92796)	pKd (ARHGEF12, Q9NZN5-2)	pKd (GOPC, Q9HD26)	pKd (APBA2_1, Q99767)	pKd (MAGI1_2, Q96QZ7)	pKd (SCRIB_1, Q14160)	pKd (GRASP, Q7Z6J2)	also measured
QNRIITKTDV [SMCHD1, A6NHR9]	below the threshold	below the threshold	below the threshold	below the threshold	3.48	5.05	below the threshold	below the threshold	below the threshold	3.97	4.24	below the threshold	3.51	below the threshold	4.19	3.87	below the threshold	3.99	3.88	3.92	pKd (DLG3_2, Q92796): 4.08; pKd (SNTA1, Q13424): 3.61; pKd (IL16_4, Q14005): below the threshold; pKd (GRID2IP_1, A4D2P6): below the threshold; pKd (TJP3_3, O95049): below the threshold; pKd (FRMPD3, Q5JV73): below the threshold
LGHTPFVDEL [UQCRC2, P22695]	below the threshold	below the threshold	4.2	below the threshold	below the threshold	4.56	below the threshold	below the threshold	below the threshold	below the threshold	4	4.73	below the threshold	below the threshold	below the threshold	below the threshold	below the threshold	below the threshold	below the threshold	3.85	pKd (DLG3_2, Q92796): 3.48; pKd (SNTA1, Q13424): below the threshold; pKd (IL16_4, Q14005): 3.59; pKd (GRID2IP_1, A4D2P6): below the threshold; pKd (TJP3_3, O95049): below the threshold; pKd (FRMPD3, Q5JV73): below the threshold
GDGLDDEIAV [NOS1AP, O75052]	below the threshold	below the threshold	below the threshold	below the threshold	below the threshold	4.04	below the threshold	below the threshold	below the threshold	below the threshold	below the threshold	below the threshold	below the threshold	below the threshold	below the threshold	below the threshold	below the threshold	below the threshold	below the threshold	below the threshold	pKd (DLG3_2, Q92796): 4.01; pKd (SNTA1, Q13424): 3.75; pKd (IL16_4, Q14005): below the threshold; pKd (GRID2IP_1, A4D2P6): below the threshold; pKd (TJP3_3, O95049): below the threshold; pKd (FRMPD3, Q5JV73): 4.16
YPKQMPLSQV [FZD8, Q9H461]	below the threshold	below the threshold	below the threshold	below the threshold	4.04	4.29	below the threshold	4.34	below the threshold	3.7	below the threshold	below the threshold	below the threshold	below the threshold	4.09	4.52	below the threshold	3.55	below the threshold	below the threshold	pKd (DLG3_2, Q92796): below the threshold; pKd (SNTA1, Q13424): 3.67; pKd (IL16_4, Q14005): below the threshold; pKd (GRID2IP_1, A4D2P6): below the threshold; pKd (TJP3_3, O95049): below the threshold; pKd (FRMPD3, Q5JV73): below the threshold

— publication PMC9482650, “Quantitative fragmentomics allow affinity mapping of interactomes” (Nature Communications, 2022)
